Test results as given in the supplement of paper PMC11246515.
± gives the standard deviation of the averaged measurements.

Assay: total protein half-life in vivo (active degradation + dilution); higher = more stable protein
[1] = E. coli NCM3722 delta-clpP delta-lon delta-hslV, growth: N-lim chemostat, doubling time 6 h
[2] = E. coli NCM3722 delta-clpP, growth: N-lim chemostat, doubling time 6 h
[3] = E. coli NCM3722 delta-hslV, growth: N-lim chemostat, doubling time 6 h
[4] = E. coli NCM3722 delta-lon, growth: N-lim chemostat, doubling time 6 h
[5] = E. coli NCM3722 delta-smpB, growth: N-lim chemostat, doubling time 6 h
[6] = wild type E. coli NCM3722, growth: C-lim chemostat, doubling time 3 h
[7] = wild type E. coli NCM3722, growth: C-lim chemostat, doubling time 6 h
[8] = wild type E. coli NCM3722, growth: C-lim chemostat, doubling time 12 h
[9] = wild type E. coli NCM3722, growth: N-lim chemostat, doubling time 6 h
[10] = wild type E. coli NCM3722, growth: N-lim chemostat, doubling time 12 h
[11] = wild type E. coli NCM3722, growth: P-lim chemostat, doubling time 6 h
[12] = wild type E. coli NCM3722, growth: P-lim chemostat, doubling time 12 h

MTEQQKLTFTALQQRLDSLMLRDRLRFSRRLHGVKKVKNPDAQQAIFQEMAKEIDQAAGKVLLREAARPEITYPDNLPVSQKKQDILEAIRDHQVVIVAGETGSGKTTQLPKICMELGRGIKGLIGHTQPRRLAARTVANRIAEELKTEPGGCIGYKVRFSDHVSDNTMVKLMTDGILLAEIQQDRLLMQYDTIIIDEAHERSLNIDFLLGYLKELLPRRPDLKIIITSATIDPERFSRHFNNAPIIEVSGRTYPVEVRYRPIVEEADDTERDQLQAIFDAVDELSQESHGDILIFMSGEREIRDTADALNKLNLRHTEILPLYARLSNSEQNRVFQSHSGRRIVLATNVAETSLTVPGIKYVIDPGTARISRYSYRTKVQRLPIEPISQASANQRKGRCGRVSEGICIRLYSEDDFLSRPEFTDPEILRTNLASVILQMTALGLGDIAAFPFVEAPDKRNIQDGVRLLEELGAITTDEQASAYKLTPLGRQLSQLPVDPRLARMVLEAQKHGCVREAMIITSALSIQDPRERPMDKQQASDEKHRRFHDKESDFLAFVNLWNYLGEQQKALSSNAFRRLCRTDYLNYLRVREWQDIYTQLRQVVKELGIPVNSEPAEYREIHIALLTGLLSHIGMKDADKQEYTGARNARFSIFPGSGLFKKPPKWVMVAELVETSRLWGRIAARIDPEWVEPVAQHLIKRTYSEPHWERAQGAVMATEKVTVYGLPIVAARKVNYSQIDPALCRELFIRHALVEGDWQTRHAFFRENLKLRAEVEELEHKSRRRDILVDDETLFEFYDQRISHDVISARHFDSWWKKVSRETPDLLNFEKSMLIKEGAEKISKLDYPNFWHQGNLKLRLSYQFEPGADADGVTVHIPLPLLNQVEESGFEWQIPGLRRELVIALIKSLPKPVRRNFVPAPNYAEAFLGRVKPLELPLLDSLERELRRMTGVTVDREDWHWDQVPDHLKITFRVVDDKNKKLKEGRSLQDLKDALKGKVQETLSAVADDGIEQSGLHIWSFGQLPESYEQKRGNYKVKAWPALVDERDSVAIKLFDNPLEQKQAMWNGLRRLLLLNIPSPIKYLHEKLPNKAKLGLYFNPYGKVLELIDDCISCGVDKLIDANGGPVWTEEGFAALHEKVRAELNDTVVDIAKQVEQILTAVFNINKRLKGRVDMTMALGLSDIKAQMGGLVYRGFVTGNGFKRLGDTLRYLQAIEKRLEKLAVDPHRDRAQMLKVENVQQAWQQWINKLPPARREDEDVKEIRWMIEELRVSYFAQQLGTPYPISDKRILQAMEQISG
total protein half-life in vivo [1]: 6.34 ± 0.51 h | total protein half-life in vivo [2]: 6.5 ± 1.2 h | total protein half-life in vivo [3]: 5.99 ± 0.13 h | total protein half-life in vivo [4]: 5.89 ± 0.89 h | total protein half-life in vivo [5]: 5.46 ± 0.8 h | total protein half-life in vivo [6]: 3.53 ± 0.13 h | total protein half-life in vivo [7]: 6.34 ± 0.23 h | total protein half-life in vivo [8]: 12.8 ± 1.3 h | total protein half-life in vivo [9]: 5.66 ± 0.1 h | total protein half-life in vivo [10]: 11.2 ± 0.78 h | total protein half-life in vivo [11]: 5.71 ± 0.12 h | total protein half-life in vivo [12]: 11.3 ± 0.18 h

MTESTSRRPAYARLLDRAVRILAVRDHSEQELRRKLAAPIMGKNGPEEIDATAEDYERVIAWCHEHGYLDDSRFVARFIASRSRKGYGPARIRQELNQKGISREATEKAMRECDIDWCALARDQATRKYGEPLPTVFSEKVKIQRFLLYRGYLMEDIQEIWRNFAD
total protein half-life in vivo [1]: 5.54 ± 0.24 h | total protein half-life in vivo [2]: 3.94 h | total protein half-life in vivo [7]: 4.03 h | total protein half-life in vivo [10]: 5.32 h | total protein half-life in vivo [11]: 7.34 h | total protein half-life in vivo [12]: 8.52 h

MTFSLFGDKFTRHSGITLLMEDLNDGLRTPGAIMLGGGNPAQIPEMQDYFQTLLTDMLESGKATDALCNYDGPQGKTELLTLLAGMLREKLGWDIEPQNIALTNGSQSAFFYLFNLFAGRRADGRVKKVLFPLAPEYIGYADAGLEEDLFVSARPNIELLPEGQFKYHVDFEHLHIGEETGMICVSRPTNPTGNVITDEELLKLDALANQHGIPLVIDNAYGVPFPGIIFSEARPLWNPNIVLCMSLSKLGLPGSRCGIIIANEKIITAITNMNGIISLAPGGIGPAMMCEMIKRNDLLRLSETVIKPFYYQRVQETIAIIRRYLPENRCLIHKPEGAIFLWLWFKDLPITTKQLYQRLKARGVLMVPGHNFFPGLDKPWPHTHQCMRMNYVPEPEKIEAGVKILAEEIERAWAESH
total protein half-life in vivo [1]: 3.05 ± 0.33 h | total protein half-life in vivo [2]: 2.32 ± 0.096 h | total protein half-life in vivo [3]: 2.53 ± 0.12 h | total protein half-life in vivo [4]: 2.72 ± 0.059 h | total protein half-life in vivo [5]: 2.76 ± 0.11 h | total protein half-life in vivo [7]: 4.26 ± 0.073 h | total protein half-life in vivo [8]: 7.25 ± 0.17 h | total protein half-life in vivo [9]: 2.46 ± 0.28 h | total protein half-life in vivo [10]: 3.33 ± 0.17 h | total protein half-life in vivo [11]: 4.994 ± 0.0076 h | total protein half-life in vivo [12]: 9.24 ± 0.47 h

MTGKKRSASSSRWLQEHFSDKYVQQAQKKGLRSRAWFKLDEIQQSDKLFKPGMTVVDLGAAPGGWSQYVVTQIGGKGRIIACDLLPMDPIVGVDFLQGDFRDELVMKALLERVGDSKVQVVMSDMAPNMSGTPAVDIPRAMYLVELALEMCRDVLAPGGSFVVKVFQGEGFDEYLREIRSLFTKVKVRKPDSSRARSREVYIVATGRKP [P0C0R7]
total protein half-life in vivo [1]: 5.17 ± 0.46 h | total protein half-life in vivo [2]: 3.946 ± 0.035 h | total protein half-life in vivo [3]: 4.42 ± 0.32 h | total protein half-life in vivo [4]: 4.55 ± 0.18 h | total protein half-life in vivo [5]: 4.52 ± 0.28 h | total protein half-life in vivo [6]: 2.81 ± 0.034 h | total protein half-life in vivo [7]: 5.87 ± 0.41 h | total protein half-life in vivo [8]: 11.4 ± 1.5 h | total protein half-life in vivo [9]: 4.45 ± 0.14 h | total protein half-life in vivo [10]: 7.904 ± 0.057 h | total protein half-life in vivo [11]: 5.13 ± 0.14 h | total protein half-life in vivo [12]: 8.89 ± 0.018 h
